Measured values reported in patent US20210054097A1 (Novo Nordisk, published 2021).
One block for each binder: values may come before it. Ends that are not written are not given here.

Assays:
Experiment in all cases: peptide ELISA
[1] = target: T1, FX activation peptide 12-mer SVAQATSSSGEA (human)
T1 peptide: SVAQATSSSGEA-biotin
Protocol: (§1) The peptides were C-terminally conjugated to biotin and 50 μL of 1 μg/mL peptide solution was used for immobilization in discrete wells of the microtiter plate which was pre-coated with 1 μg/mL streptavidin. Each well was washed with washing buffer (10 mM Tris, 150 mM NaCl, 2.5 mM CaCl₂, 0.05% Tween 20, pH 8.60) followed by addition of 50 μL of 2 μg/mL FLAG-tagged anti-FX Nanobody® or IgG antibody to be tested. After 1 hour non-bound Nanobody®/antibody was washed off using washing buffer.
(§2) Bound anti-FX activation peptide ligand was detected by first binding a HRP-labelled secondary antibody (for FLAG-tagged Nanobodies: Anti-FLAG mAb M2-Peroxidase (HRP) (Sigma Aldrich, US), for antibody: Fcγ Fragment Specific Peroxidase AffiniPure F(ab′)₂ Fragment Goat Anti-Human IgG (Jackson ImmunoResearch Laboratories, Inc., US), or Peroxidase AffiniPure Goat Anti-Mouse IgG (Jackson ImmunoResearch Laboratories, Inc., US)) for 1 hour, and then adding 100 μL TMB-1 ELISA substrate (Kem-En-Tec Diagnostics, Denmark).

[2] = target: T2, FX activation peptide 12-mer VAQATSSSGEAP (human)
T2 peptide: VAQATSSSGEAP-biotin
Protocol: as §1, §2

[3] = target: T3, FX activation peptide 12-mer AQATSSSGEAPD (human)
T3 peptide: AQATSSSGEAPD-biotin
Protocol: as §1, §2

[4] = target: T4, FX activation peptide 12-mer QATSSSGEAPDS (human)
T4 peptide: QATSSSGEAPDS-biotin
Protocol: as §1, §2

[5] = target: T5, FX activation peptide 12-mer ATSSSGEAPDSI (human)
T5 peptide: ATSSSGEAPDSI-biotin
Protocol: as §1, §2

[6] = target: T6, FX activation peptide 12-mer SSGEAPDSITWK (human)
T6 peptide: SSGEAPDSITWK-biotin
Protocol: as §1, §2

[7] = target: T7, FX activation peptide 12-mer SGEAPDSITWKP (human)
T7 peptide: SGEAPDSITWKP-biotin
Protocol: as §1, §2

[8] = target: T8, FX activation peptide 12-mer GEAPDSITWKPY (human)
T8 peptide: GEAPDSITWKPY-biotin
Protocol: as §1, §2

[9] = target: T9, FX activation peptide 12-mer EAPDSITWKPYD (human)
T9 peptide: EAPDSITWKPYD-biotin
Protocol: as §1, §2

[10] = target: T10, FX activation peptide 12-mer APDSITWKPYDA (human)
T10 peptide: APDSITWKPYDA-biotin
Protocol: as §1, §2

[11] = target: T11, FX activation peptide 12-mer DSITWKPYDAAD (human)
T11 peptide: DSITWKPYDAAD-biotin
Protocol: as §1, §2

[12] = target: T12, FX activation peptide 12-mer SITWKPYDAADL (human)
T12 peptide: SITWKPYDAADL-biotin
Protocol: as §1, §2

[13] = target: T13, FX activation peptide 12-mer ITWKPYDAADLD (human)
T13 peptide: ITWKPYDAADLD-biotin
Protocol: as §1, §2

[14] = target: T14, FX activation peptide 12-mer WKPYDAADLDPT (human)
T14 peptide: WKPYDAADLDPT-biotin
Protocol: as §1, §2

[15] = target: T15, FX activation peptide 12-mer PYDAADLDPTEN (human)
T15 peptide: PYDAADLDPTEN-biotin
Protocol: as §1, §2

[16] = target: T16, FX activation peptide 12-mer YDAADLDPTENP (human)
T16 peptide: YDAADLDPTENP-biotin
Protocol: as §1, §2

[17] = target: T17, FX activation peptide 12-mer DAADLDPTENPF (human)
T17 peptide: DAADLDPTENPF-biotin
Protocol: as §1, §2

[18] = target: T18, FX activation peptide 12-mer AADLDPTENPFD (human)
T18 peptide: AADLDPTENPFD-biotin
Protocol: as §1, §2

[19] = target: T19, FX activation peptide 12-mer ADLDPTENPFDL (human)
T19 peptide: ADLDPTENPFDL-biotin
Protocol: as §1, §2

[20] = target: T20, FX activation peptide 12-mer DLDPTENPFDLL (human)
T20 peptide: DLDPTENPFDLL-biotin
Protocol: as §1, §2

[21] = target: T21, FX activation peptide 12-mer TENPFDLLDFNQ (human)
T21 peptide: TENPFDLLDFNQ-biotin
Protocol: as §1, §2

[22] = target: T22, FX activation peptide 12-mer ENPFDLLDFNQT (human)
T22 peptide: ENPFDLLDFNQT-biotin
Protocol: as §1, §2

[23] = target: T23, FX activation peptide 12-mer NPFDLLDFNQTQ (human)
T23 peptide: NPFDLLDFNQTQ-biotin
Protocol: as §1, §2

[24] = target: T24, FX activation peptide 12-mer DLLDFNQTQPER (human)
T24 peptide: DLLDFNQTQPER-biotin
Protocol: as §1, §2

[25] = target: T25, FX activation peptide 12-mer LLDFNQTQPERG (human)
T25 peptide: LLDFNQTQPERG-biotin
Protocol: as §1, §2

[26] = target: T26, FX activation peptide 12-mer LDFNQTQPERGD (human)
T26 peptide: LDFNQTQPERGD-biotin
Protocol: as §1, §2

[27] = target: T27, FX activation peptide 12-mer DFNQTQPERGDN (human)
T27 peptide: DFNQTQPERGDN-biotin
Protocol: as §1, §2

[28] = target: T28, FX activation peptide 12-mer FNQTQPERGDNN (human)
T28 peptide: FNQTQPERGDNN-biotin
Protocol: as §1, §2

[29] = target: T29, FX activation peptide 12-mer NQTQPERGDNNL (human)
T29 peptide: NQTQPERGDNNL-biotin
Protocol: as §1, §2

[30] = target: T30, FX activation peptide 12-mer QTQPERGDNNLT (human)
T30 peptide: QTQPERGDNNLT-biotin
Protocol: as §1, §2

[31] = target: T31, FX activation peptide 12-mer TQPERGDNNLTR (human)
T31 peptide: TQPERGDNNLTR-biotin
Protocol: as §1, §2

[32] = target: T32, FX activation peptide 12-mer LDPTENPFDLLD (human)
T32 peptide: LDPTENPFDLLD-biotin
Protocol: as §1, §2

[33] = target: T33, FX activation peptide 12-mer FDLLDFNQTQPE (human)
T33 peptide: FDLLDFNQTQPE-biotin
Protocol: as §1, §2

ELISA signal relative to background [1]: 0.92
ELISA signal relative to background [2]: 0.99
ELISA signal relative to background [3]: 1.08
ELISA signal relative to background [4]: 1.08
ELISA signal relative to background [5]: 1.24
ELISA signal relative to background [6]: 0.96
ELISA signal relative to background [7]: 0.98
ELISA signal relative to background [8]: 1.05
ELISA signal relative to background [9]: 1.01
ELISA signal relative to background [10]: 1.04
ELISA signal relative to background [11]: 1.05
ELISA signal relative to background [12]: 1.13
ELISA signal relative to background [13]: 1.28
ELISA signal relative to background [14]: 1.2
ELISA signal relative to background [15]: 1.06
ELISA signal relative to background [16]: 1.06
ELISA signal relative to background [17]: 1.1
ELISA signal relative to background [18]: 1.05
ELISA signal relative to background [19]: 0.98
ELISA signal relative to background [20]: 1.06
ELISA signal relative to background [21]: 9.12
ELISA signal relative to background [22]: 17.8
ELISA signal relative to background [23]: 8.27
ELISA signal relative to background [24]: 1.12
ELISA signal relative to background [25]: 1.1
ELISA signal relative to background [26]: 0.98
ELISA signal relative to background [27]: 0.97
ELISA signal relative to background [28]: 1.05
ELISA signal relative to background [29]: 1.13
ELISA signal relative to background [31]: 1.09
B1: Nb 729A04 (VHH)
VHH: EVQLVESGGGVVQPGGSLRLSCAASGFTFSDYAMSWVRQAPGKGLEWVSGITSGGGRTYYADSVKGRFTISRDNSKNTLYLQMNSLRPEDTALYYCAAVRTLGLRGSYDYWGQGTLVTVSS
notes: monovalent Nanobody; not shown: C-terminal FLAG3 and HIS6 tag
ELISA signal relative to background [30]: 1.11

ELISA signal relative to background [1]: 1.14
ELISA signal relative to background [2]: 1.09
ELISA signal relative to background [3]: 1.17
ELISA signal relative to background [4]: 1.12
ELISA signal relative to background [5]: 1.13
ELISA signal relative to background [6]: 1.06
ELISA signal relative to background [7]: 1.07
ELISA signal relative to background [8]: 1.15
ELISA signal relative to background [9]: 1.11
ELISA signal relative to background [10]: 1.09
ELISA signal relative to background [11]: 1.09
ELISA signal relative to background [12]: 1.11
ELISA signal relative to background [13]: 1.06
ELISA signal relative to background [14]: 1.08
ELISA signal relative to background [15]: 1.08
ELISA signal relative to background [16]: 1.09
ELISA signal relative to background [17]: 1.18
ELISA signal relative to background [18]: 1.17
ELISA signal relative to background [19]: 1.11
ELISA signal relative to background [20]: 1.21
ELISA signal relative to background [21]: 3.14
ELISA signal relative to background [22]: 8.06
ELISA signal relative to background [23]: 3.41
ELISA signal relative to background [33]: 1.15
ELISA signal relative to background [24]: 1.22
ELISA signal relative to background [25]: 1.13
ELISA signal relative to background [26]: 1.12
ELISA signal relative to background [27]: 1.1
ELISA signal relative to background [28]: 1.08
ELISA signal relative to background [29]: 1.09
ELISA signal relative to background [31]: 1.37
B4: Nb 729C08 (VHH)
VHH: EVQLVESGGGVVQPGGSLRLSCAASGFTFSDYAMSWVRQAPGKGLEWVSGITGGGRTYYADSVKGRFTISRDNSKNTLYLQMNSLRPEDTALYYCAAAILTRTRRTYDYWGQGTLVTVSS
notes: monovalent Nanobody; also called Nb 729008; not shown: C-terminal FLAG3 and HIS6 tag
ELISA signal relative to background [30]: 1.04

More lines, now with the values behind:

B2: Nb 701C06 (VHH)
VHH: EVQLVESGGGVVQPGGSLRLSCAASGRTFSTYAMGWFRQAPGKEREFVAAISRRGGRTYYADSVKGRFTISRDNSKNTVYLQMNSLRPEDTALYYCAADATARDGLLDYWGQGTLVTVSS
notes: as for B1
ELISA signal relative to background [1]: 0.92
ELISA signal relative to background [2]: 0.93
ELISA signal relative to background [3]: 0.91
ELISA signal relative to background [4]: 0.94
ELISA signal relative to background [5]: 0.91
ELISA signal relative to background [6]: 0.89
ELISA signal relative to background [7]: 0.88
ELISA signal relative to background [8]: 0.9
ELISA signal relative to background [9]: 0.89
ELISA signal relative to background [10]: 0.96
ELISA signal relative to background [11]: 0.93
ELISA signal relative to background [12]: 0.94
ELISA signal relative to background [13]: 1.03
ELISA signal relative to background [14]: 0.99
ELISA signal relative to background [15]: 0.82
ELISA signal relative to background [16]: 0.85
ELISA signal relative to background [17]: 0.85
ELISA signal relative to background [18]: 0.82
ELISA signal relative to background [19]: 0.87
ELISA signal relative to background [20]: 0.88
ELISA signal relative to background [32]: 0.94
ELISA signal relative to background [24]: 1.13
ELISA signal relative to background [25]: 1.03
ELISA signal relative to background [26]: 0.93
ELISA signal relative to background [27]: 0.87
ELISA signal relative to background [28]: 0.88
ELISA signal relative to background [29]: 0.85
ELISA signal relative to background [30]: 0.93
ELISA signal relative to background [31]: 0.97

B3: Nb 701D07 (VHH)
VHH: EVQLVESGGGVVQPGGSLRLSCAASGGTLSRYAMGWFRQAPGKEREFVAAITRRGSRTYYADSVKGRFTISRDNSKNTVYLQMNSLRPEDTALYYCAADLAPGDYALDYWGQGTLVTVSS
notes: as for B1
ELISA signal relative to background [1]: 0.76
ELISA signal relative to background [2]: 0.84
ELISA signal relative to background [3]: 0.89
ELISA signal relative to background [4]: 0.81
ELISA signal relative to background [5]: 0.86
ELISA signal relative to background [6]: 0.74
ELISA signal relative to background [7]: 0.78
ELISA signal relative to background [8]: 0.8
ELISA signal relative to background [9]: 0.76
ELISA signal relative to background [10]: 0.9
ELISA signal relative to background [11]: 0.89
ELISA signal relative to background [12]: 1.04
ELISA signal relative to background [13]: 0.89
ELISA signal relative to background [14]: 0.85
ELISA signal relative to background [15]: 0.73
ELISA signal relative to background [16]: 0.75
ELISA signal relative to background [17]: 0.7
ELISA signal relative to background [18]: 0.69
ELISA signal relative to background [19]: 0.77
ELISA signal relative to background [20]: 0.74
ELISA signal relative to background [32]: 0.8
ELISA signal relative to background [33]: 0.99
ELISA signal relative to background [24]: 0.81
ELISA signal relative to background [25]: 0.8
ELISA signal relative to background [26]: 0.79
ELISA signal relative to background [27]: 0.75
ELISA signal relative to background [28]: 0.82
ELISA signal relative to background [29]: 0.87
ELISA signal relative to background [30]: 0.79
ELISA signal relative to background [31]: 0.88
